Measured values from patent US11534528B2, “Sterilization of self-assembling peptides by irradiation” (3-D Matrix, Ltd., priority 2020, dated 2022).
Where “and” joins values, the source holds several entries; their conditions need not be identical. Equal values may be shown once.

Experiments:
[1] = Appearance of peptide solution before and after irradiation; type: physicochemical; conditions: for appearance and pH, summary: after gamma, X-ray and e-beam irradiation at around 25~40 kGy
Experimental: (§1) Samples were irradiated with gamma rays at 23, 25, 28 and 40 kGy with VPTrad Gammacell 220® High Dose Rate Co-60 Irradiator. In some embodiments, the run dose rate and duration time for 40 kGy irradiation were 6.30 kGy/hr and 6 hours 20 minutes 58 seconds, respectively. In other embodiments, the run dose rate and duration time for 28 kGy irradiation were 4.40 kGy/hr and 6 hours 22 minutes 31 seconds, respectively. In other embodiments, the run dose rate and duration time for 25 kGy irradiation were 6.58 kGy/hr and 3 hours 47 minutes 42 seconds, respectively. In other embodiments, the run dose rate and duration time for 23 kGy irradiation were 6.58 kGy/hr and 3 hours 29 minutes 29 seconds, respectively.
(§2) In other embodiments, samples were irradiated with X-ray at 25 kGy and 40 kGy with a Mevex accelerator (10 MeV, 20 kW).
(§3) In other embodiments, samples were irradiated with e-beam at 25 and 40 kGy with a Mevex accelerator (10 MeV, 20 kW).
(§4) Methods and test results: The appearance of PuraStat® was observed after each test. The pH of PuraStat® was tested using an Accumet AB15 pH meter (Fisher Scientific). HPLC tests were performed to evaluate the major peptide content after irradiation tests. Agilent HPLC 1100 (Agilent Technologies) was used for this study. Column temperature was kept at 25° C.

[2] = pH of peptide solution before and after irradiation; type: physicochemical
Experimental: as §1, §2, §3, §4

[3] = HPLC test for major peptide content; type: physicochemical; conditions: N = 3, mean ± SD
Experimental: HPLC tests were performed to evaluate the major peptide content after irradiation tests. An Agilent HPLC 1100 (Agilent Technologies) was used for this study. The column temperature was kept at 25° C.
For RADA16 (SEQ ID NO:1) samples, solvent A was water with 0.1% TFA and solvent B was 80% acetonitrile with 0.1% TFA. Gradient of solvent B was controlled from 10% to 40% in 20 min and 40% for another 5 min at 25° C. Agilent Zorbax 300SB-C18 column (4.6 mm×250 mm, 5 μm, 300 Å) was used for this test. PuraStat® (RADA16 (SEQ ID NO:1) 2.5%) (40 mg) was mixed with 10 μL of DH2O and the mixture was vortexed. The mixture was further mixed with 500 μL of formic acid and vortexed. This mixture was then mixed with DH2O (4,450 μL) and vortexed. 20 μL samples were injected using an Agilent autosampler.
For IEIK13 (SEQ ID NO:3) samples, solvent A was water with 0.1% TFA and solvent B was 90% Acetonitrile with 0.1% TFA. The gradient of solvent B was controlled from 20% to 43% in 8 min, from 43% to 70% between 8 and 9.5 min, and from 70% to 95% between 9.5 and 30 min, and 95% for another 5 min at 25° C. An Agilent PLRP-S column (4.6 mm×250 mm, 8 μm, 300 Å) was used for this test. A 1.3% solution of IEIK13 (SEQ ID NO:3) was diluted with water with 0.1% TFA to 0.075% and the mixture was vortexed. 35 μL samples were injected using an Agilent autosampler.
For QLEL12 (SEQ ID NO:4) samples, solvent A was water and solvent B was 80% acetonitrile. The gradient of solvent B was controlled from 20% to 80% in 15 min and 80% for another 7 min at 25° C. An Agilent PLRP-S column (4.6 mm×250 mm, 8 μm, 300 Å) was used for this test. 0.15% w/v of QLEL12 (SEQ ID NO:4) solution was diluted to 0.01% with DH2O and vortexed. 50 μL samples were injected using an Agilent autosampler.
as §4
Solvent A was water with 0.1% TFA and solvent B was 80% Acetonitrile with 0.1% TFA. Gradient of solvent B was controlled from 10% to 40% in 20 min and 40% for another 5 min at 25° C. Agilent Zorbax 300SB-C18 column (4.6 mm×250 mm, 5 μm, 300 Å) was used for this test. PuraStat® (RADA16 (SEQ ID NO:1) 2.5%) (40 mg) were mixed with 10 μL of DH2O and 500 μL of formic acid and vortexed. And the mixture was mixed with DH2O (4,450 μL) and vortexed. 20 μL of samples were injected using an Agilent autosampler.
Agilent HPLC 1100 (Agilent Technologies) was used for this study. Column temperature was kept at 25° C. Agilent Zorbax 300SB-C18 column (4.6 mm×250 mm, […], 300 Å) was used for this test. Solvent A was water with 0.1% TFA and solvent B was 80% Acetonitrile with 0.1% TFA. Gradient of solvent B was controlled from 10% to 40% in 20 min and 40% for another 5 min at 25° C. PuraStat® (40 mg) was mixed with 10 μL of DH2O and 500 μL of formic acid and vortexed, and the mixture was mixed with DH2O (4,450 μL) and vortexed. […] of samples were injected using an Agilent autosampler.

[4] = Mass spectrometry test for degradation of the peptides; type: physicochemical
Experimental: (§5) Mass spectrometry tests were carried out to investigate the degradation of the peptides after irradiation sterilization. An Agilent LC/MSD ion trap mass spectrometer was used for this study. The sample solutions were prepared as described above for the HPLC samples. Each sample was injected at 9 μL/min with a syringe pump. Each mass spectrum was recorded for 1 minute.
as §5, with “sterilization.” for “sterilization. An”, “Mass” for “Each mass”, “minute. The molecular weight of PuraStat® (Ac-(RADA)4-NH2) (SEQ ID NO:1) is 1712, which matches its calculated molecular weight from the major three peaks at m/3=572, m/2=857, and m=1713 in all the spectra of control and irradiated PuraStat® samples.” for “minute.”

[5] = RADA16 in solution; cited from earlier work
[6] = after gamma, X-ray or e-beam irradiation

Substance | Appearance ([1]; X-ray irradiation at 25 kGy) | Appearance ([1]; X-ray irradiation at 40 kGy) | appearance and pH, summary [1] | Appearance ([1]; control, not irradiated) | Appearance ([1]; e-beam irradiation at 25 kGy) | Appearance ([1]; e-beam irradiation at 40 kGy) | Appearance ([1]; gamma irradiation at 40 kGy) | pH ([2]; X-ray irradiation at 25 kGy) | pH ([2]; X-ray irradiation at 40 kGy) | pH ([2]; control, not irradiated) | pH ([2]; e-beam irradiation at 25 kGy) | pH ([2]; e-beam irradiation at 40 kGy) | pH ([2]; gamma irradiation at 40 kGy) | Major peptide content (%) ([3]; X-ray irradiation at 25 kGy) | Major peptide content (%) ([3]; X-ray irradiation at 40 kGy) | Major peptide content (%) ([3]; control, not irradiated) | Major peptide content (%) ([3]; e-beam irradiation at 25 kGy) | Major peptide content (%) ([3]; e-beam irradiation at 40 kGy) | Major peptide content (%) ([3]; gamma irradiation at 40 kGy) | degradation by mass spectrometry analysis [4, 6] | other results
Ac-IEIKIEIKIEIKI-NH2 [IEIK13] | Clear and viscous | Clear and viscous | remained unchanged | Clear and viscous | Clear and viscous | Clear and viscous | Clear and viscous | 3.0 | 3.0 | 3.0 | 3.0 | 3.0 | 3.0 | 99.8% and 99.8 ± 0.1% | 99.9% and 99.9 ± 0.1% | 99.6% and 99.6 ± 0.0% | 99.6% and 99.6 ± 0.2% | 99.8% and 99.8 ± 0.1% | 99.8% and 99.8 ± 0.2% | only insubstantially degraded | Appearance ([1]; gamma irradiation at 28 kGy): Clear and viscous; pH ([2]; gamma irradiation at 28 kGy): 3.0
Ac-KLDLKLDLKLDL-NH2 [KLD12, self-assembling peptide] | Clear and viscous | Clear and viscous | remained unchanged | Clear and viscous | Clear and viscous | Clear and viscous | Clear and viscous | 2.2 | 2.2 | 2.2 | 2.2 | 2.2 | 2.2 |  |  |  |  |  |  |  | 
Ac-QLELQLELQLEL-NH2 [QLEL12, self-assembling peptide, degraded by irradiation] | Clear and watery | Clear and watery |  | Clear and viscous | Clear and watery | Clear and watery | Clear and watery | 6.3 | 5.9 | 7.0 | 6.6 | 6.5 | 5.9 | 57.0% and 57.0 ± 4.9 % | 47.3% and 47.3 ± 1.3 % | 90.5% and 90.5 ± 1.3% | 51.9% and 51.9 ± 7.3 % | 55.6% and 55.6 ± 3.0 % | 40.7% and 40.7 ± 3.1 % | significantly degraded | Appearance ([1]; gamma irradiation at 23 kGy): Clear and watery; Appearance ([1]; gamma irradiation at 25 kGy): Clear and watery; pH ([2]; gamma irradiation at 23 kGy): 6.7; pH ([2]; gamma irradiation at 25 kGy): 6.5
Ac-RADARADARADARADA-NH2 [RADA16] |  |  | remained unchanged |  |  |  |  |  |  |  |  |  |  | 73.8% | 71.9% | 78.3% | 76.0% | 70.0% | 69.7% | not degraded | Major peptide content (%) ([3]; gamma irradiation at 23 kGy): 75.5%; Major peptide content (%) ([3]; gamma irradiation at 25 kGy): 74.6%; Major peptide content (%) ([3]; gamma irradiation at 28 kGy): 68.5%; degradation by mass spectrometry analysis ([4]; autoclave treatment (121° C. for 20 min)): completely degraded; degradation on autoclaving [5]: complete thermal degradation
